Data on 39 sequences can be found in the supplement of paper PMC9170038.

Details in all cases: FMN input: 0 or 200 uM; Eterna round: R93 (includes R88 designs)
In series [1] the test system is MS2 coat protein. Briefly: apparent KD of MS2 coat protein, switch OFF state (with FMN for OFF switches, without FMN for ON switches); designed switch direction (-1 OFF switch, 1 ON switch): 1; higher = weaker reporter binding. A digest of the protocol:
(§1)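 Designed RNA switches, transcribed on-chip from Illumina sequencing clusters, were titrated with SNAP-549-labelled MS2 coat protein from 0.7 or 1.5 nM to 3 µM in twofold steps. The solution was 100 mM Tris-HCl pH 7.5, 80 mM KCl, 4 mM MgCl2, with constant ligand or without it. Apparent KD is the median over each design's normalised cluster binding-curve fits.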

The test system of series [2] is MS2 coat protein. The series can be described thus: apparent KD of MS2 coat protein, switch ON state; designed switch direction (-1 OFF switch, 1 ON switch): 1; higher = weaker reporter binding. A digest of the protocol:
as §1

Series [3] has as its system MS2 coat protein. Briefly: apparent KD of MS2 coat protein, switch OFF state (with FMN for OFF switches, without FMN for ON switches); designed switch direction (-1 OFF switch, 1 ON switch): -1; higher = weaker reporter binding. The method, boiled down:
as §1

The subject of series [4] is MS2 coat protein. The series can be described thus: apparent KD of MS2 coat protein, switch ON state; designed switch direction (-1 OFF switch, 1 ON switch): -1; higher = weaker reporter binding. A digest of the protocol:
as §1

On to “GAGAUACAUGAGGAUCACCCAUGUUGAAAUAUGGGAGGAUAUACAAGGUCGAAAGAUAAGGUAGAAGGCCUAAAAG [LROPPY Same State 1 - v03_deltaG=1.1]”, for which the results for the “apparent KD of MS2 coat protein” value with MS2 coat protein [1] and with MS2 coat protein [2] were 176 nM and 39.1 nM, respectively. Turning to “AAAAUAAAAAGGCAGGAUAUCCAAAAUAAAACAUGAGGAUCACCCAUGUAAAUAAAAAUAAAGUGGGAGAAGGGUUAAAAAUAAAA [High Roller3]”, the “apparent KD of MS2 coat protein” value in the series on MS2 coat protein [1] came to 46.8 nM; in the series on MS2 coat protein [2] it was 32.5 nM.

For the sequence “GACGAACAUGAGGAUCACCCAUGUCAAAACGGACAAGGAUAUGUGUGGAAACCGUACUAUACAGAAGGUGUCUGUC [SS1 - 98]”, the “apparent KD of MS2 coat protein” value stood at 21.3 nM in the series with MS2 coat protein [1] and 16.1 nM with MS2 coat protein [2].

“UGAAAACAUGAGGAUCACCCAUGUAAAAACAUGGGAGGAUAUUGAAAAAAAAAAAAAAAACAAGAAGGCCCAAAAA [crooked]”: the “apparent KD of MS2 coat protein” value came out at 25.3 nM in the series on MS2 coat protein [1] and 37.7 nM in the series with MS2 coat protein [2]. The matching figures for “AAAACUACAGAUCAGGAUAUGUUUGGGUAAACAUGAGGAUCACCCAUGUGCACCCGAUAAACAACACAGAAGGGAUAACGUGGGA [Soensole]”: 23.7 nM and 12.7 nM. The matching figures for “AGACAUAACAGAGAGGAUAUCCAAAAGAAAACAUGAGGAUCACCCAUGUGAAAGAAAAUAAAAUGGGAGAAGGCUCACAUACAGA [Topaz 37]”: 39 nM and 20 nM. Taken in the same sequence, the figures for “ACAAAACAUGAGGAUCACCCAUGUGAGAACAUGAAAGGAUAUACUAGGACGAGAGUCAAUGUAGAAGGUUCUAGAA [SS - 1]” were 39 nM and 34.6 nM. Regarding “AACAAUCUAUCUGAGGAUAUAUGUCGAAAGACAUGAGGAUCACCCAUGUGAAAACAUGAAAAAUCAUAGAAGGCAGAUAGAUUGA [SS2: 1138]”, the “apparent KD of MS2 coat protein” value was determined as 393 nM with MS2 coat protein [1] and 49 nM in the series on MS2 coat protein [2].

For “AAAUAAAUGACUAAGGAUAUUUCAGAGAAAACAUGAGGAUCACCCAUGUAAUAAUAAAAAGGGUGAGAGAAGGUAGUCAACAAAC [74%, More Paria 4]”, the figures for the “apparent KD of MS2 coat protein” value in the series with MS2 coat protein [1] and in the series with MS2 coat protein [2] were 25.7 nM and 13.8 nM, respectively. For “ACCCGACAUGAGGAUCACCCAUGUAAACAAUCAUGAGGAUAUCCGGAGCAAGUGCUCCAGGGAGAAGGCAUAAAAG [Reesbema]”, the “apparent KD of MS2 coat protein” value in the series with MS2 coat protein [1] came to 122 nM. Take “AGGUAACAUGAGGAUCACCCAUGUACCAAUAAUGCAGGAUAUCGACACGAAAAUACGUGUCGAGAAGGGCAUGAAA [SS1 MT 22]”: the “apparent KD of MS2 coat protein” value in the series on MS2 coat protein [2] is 13.4 nM.

With “AACCAACAUGAGGAUCACCCAUGUCAGGAUAUGCAUACAACAUACAACAUACAUCAAAGCAGAAGGGACAAAAA [Amethyst 83]”, the “apparent KD of MS2 coat protein” value in the series on MS2 coat protein [3] is 24.1 nM; with MS2 coat protein [4], 26.1 nM. For “AACAGUACAGGAUAUACAUGAGGAUCACCCAUGUGAUUAUCAAGUGCCGUAGCACGAAGUAGAAGGGUACUGGA”, the results for the “apparent KD of MS2 coat protein” value in the series with MS2 coat protein [3] and with MS2 coat protein [4] were 243 nM and 60.3 nM, respectively. As for “UAAAGACAUGAGGAUCACCCAUGUGAGGAUAUCGGAGAUAACAGAACAUCAAGUUCAGCGAGAAGGCACAGAAA [JR_Exc001_Sub402]”, the “apparent KD of MS2 coat protein” value with MS2 coat protein [3] turned out to be 72 nM; in the series with MS2 coat protein [4], 47.2 nM. Taken in the same sequence, the figures for “CUCUUGUGAGGAUAUUGAAGAAAAGAAAAGAAAGAAAAGAACAAGAAGGCACAUGAGGAUCACCCAUGUAAGAA [EteRNA is fun!]” were 36.5 nM and 24.8 nM. In the case of “AAGAAACAUGAGGAUCACCCAUGUGAGGAUAUGCAAAAGAAAAGAAAAGAAAGAAGAAGCAGAAGGCACAAAGG [Neferkahor]”, the “apparent KD of MS2 coat protein” value in the series with MS2 coat protein [3] was 138 nM; in the series on MS2 coat protein [4], 49.1 nM. Taken in the same sequence, the figures for “AAAAAUCGAGGAUAUACAUGAGGAUCACCCAUGUCAGAAAAUGACUACACAAAAGAAAGUAGAAGGCGAUAAAG [Mat - Exclusion 3 - Mayanna mod - D131]” were 64.1 nM and 32 nM. With “AGAAAGUCAGGAUAUGCAGACAAAGCAAAAAAGCAAUGUCUGCAGAAGGGACAUGAGGAUCACCCAUGUAAAGA [Mat - Exclusion 4 - Mayanna - D117]”, the “apparent KD of MS2 coat protein” value was 47.5 nM in the series on MS2 coat protein [3] and 50.3 nM with MS2 coat protein [4]. Taken in the same sequence, the figures for “AAAAAGGAAGGAUAUACGAACAUGUCGAAAGACGUGAAGGGACAUGAGGAUCACCCAUGUAGAAGGUCCAAAAA [Mat - Exclusion 2 - JL mod - D79]” were 45.8 nM and 47.2 nM.

As for “AAGAAAGGAGGAUAUACAUGAGGAUCACCCAUGUAAAAGAAAGAGGGAAAAGAGAAAAGUAGAAGGCCUAAGAA [Ptolemy IX Soter II]”, the “apparent KD of MS2 coat protein” value amounted to 39.1 nM in the series with MS2 coat protein [3] and 30.8 nM in the series on MS2 coat protein [4]. Taken in the same sequence, the figures for “AAAAAACAUGAGGAUCACCCAUGUAAGGAUAUGCUGAAAAACACGGAAAAAACGUGCAGCAGAAGGUACAAAAA [66%, Wbt, 33]” were 28.3 nM and 20.1 nM. For the sequence “AGUUGGCGAGGAUAUACAUGAGGAUCACCCAUGUGAGAGAAAAAAGUGAGAAAGAAAAGUAGAAGGCGCUGACC [salish99-ex3-07]”, the entries for the “apparent KD of MS2 coat protein” value in the series with MS2 coat protein [3] and with MS2 coat protein [4] were 103 nM and 58.3 nM, respectively. The matching figures for “AAAAAGUGAGGAUAUUCGGAAGGGAAAGCGCAAACCCAACCGAAGAAGGCACAUGAGGAUCACCCAUGUGGAAA [Ecls4-III 65% - Early + late G segment 2]”: 26.8 nM and 32.1 nM.

For “AAGAAACAUGAGGAUCACCCAUGUGAGGAUAUACAAGAAAGAAAGAAAGAAAGAAGAAGUAGAAGGCACAAAGG [Gaius Valerius]”, the “apparent KD of MS2 coat protein” value was 14.4 nM in the series with MS2 coat protein [3] and 31.4 nM with MS2 coat protein [4]. The matching figures for “AACAAACAUGAGGAUCACCCAUGUCAGGAUAUCGAAACAACAAACAACAAACAACAAACGAGAAGGGACAACAA [e1]”: 23.8 nM and 19.2 nM. The matching figures for “AACGAAUGAGGAUAUACAAACAGAAAAAUCAGACAUAACAGACAUGAGGAUCACCCAUGUAGAAGGCAUAAACA [JR_Exc002_Sub902]”: 18.7 nM and 25.5 nM. As to “AGCAAGUUAGGAUAUGCAAAGUCAGGACACACACUGACGAAGCAGAAGGAACAUGAGGAUCACCCAUGUAAGCA [Mat - Exaclusion 4 - Eli mod - D63]”, the “apparent KD of MS2 coat protein” value in the series with MS2 coat protein [3] came out at 17.1 nM; in the series with MS2 coat protein [4] it was 23.5 nM. Taken in the same sequence, the figures for “AAAAAGUGAGGAUAUGCGAAGGCGUCUGAUAGACGAGGCUAGCAGAAGGCACAUGAGGAUCACCCAUGUGGGAA [Mat - Mod of Nando 64% 3]” were 98.5 nM and 53.8 nM.

Regarding “GAAAACAGAGGAUAUACAUGAUUAUGACGAAAGUCAUAAAAACAUGAGGAUCACCCAUGUAGAAGGCUGAAGAA [Meechl MS2 Ex2 2]”, the “apparent KD of MS2 coat protein” value was determined as 164 nM in the series with MS2 coat protein [3] and 130 nM in the series with MS2 coat protein [4]. Taken in the same sequence, the figures for “AAGAAGAGAGGAUAUACAUGAAAGAAAGAAAAGAAAAGAAAACAUGAGGAUCACCCAUGUAGAAGGCUCAAGAA [EteRNA is fun!]” were 40.6 nM and 39.4 nM. The matching figures for “AACUGUACAGGAUAUACAUGAGGAUCACCCAUGUGAGAAUUAAGUGGCGUACCACAAAGUAGAAGGGUACAGGA [Mat - Exclusion 3 - JL mod - D15]”: 192 nM and 36.4 nM.

Take “AGCUAGUCAGGAUAUACAAAAAUGAUAGAAGACGUAAGGGAACAUGAGGAUCACCCAUGUAGAAGGGACUAGCA [Diamond 44]”: the “apparent KD of MS2 coat protein” value amounted to 129 nM with MS2 coat protein [3] and 41 nM in the series on MS2 coat protein [4].

As for “AUAGUACAUGAGGAUCACCCAUGUCAGGAUAUCGGAUAUGACAUGAAAAAAAUGUUAACGAGAAGGGACUAUAA [EX1 Malc#18]”, the “apparent KD of MS2 coat protein” value with MS2 coat protein [3] worked out at 49.8 nM; with MS2 coat protein [4], 44.3 nM.

On to “AAGAAUCGAGGAUAUACAUGAAAGAAAGAAAAGAAAAGAAAACAUGAGGAUCACCCAUGUAGAAGGCGAUAGAA [EteRNA is fun!]”, for which the figures for the “apparent KD of MS2 coat protein” value in the series on MS2 coat protein [3] and in the series on MS2 coat protein [4] were 28.7 nM and 21.3 nM, respectively. Taken in the same sequence, the figures for “AAAAAGUCAGGAUAUGCAUGAGCAAAAAAAAAAAAGCUCAUGCAGAAGGGACAUGAGGAUCACCCAUGUAAAAA [Ex 4 May 10]” were 48.6 nM and 70.2 nM. Taken in the same sequence, the figures for “GAAAAGUCAGGAUAUAUGCGAAAAAUAAAAAAAAUAAAAACAUAGAAGGGACAUGAGGAUCACCCAUGUUAAAG [Mat - Exclusion 4 - Mayanna - D135]” were 25.4 nM and 37.7 nM.

“AAAAAAUGAGGAUAUACAUGAAAAAAAAAAAAAAAAAAAAAACAUGAGGAUCACCCAUGUAGAAGGCGUAAAAA [Flexi GU!]”: the “apparent KD of MS2 coat protein” value with MS2 coat protein [3] worked out at 29 nM; in the series with MS2 coat protein [4] it was 39.8 nM. Taken in the same sequence, the figures for “AAAACGUGAGGAUAUGCACCAAAAAAAAAAAAACGGGUACGACAUGAGGAUCACCCAUGUAGAAGGCACGAAAA [Frodo Flailing 7 - Jieux - Exclusion 2]” were 39.4 nM and 56 nM.

Consider “AUAAAGUGAGGAUAUACAUGAGGAUCACCCAUGUGAAAGUCUAAAAAAAUGACAAAAAGUAGAAGGCACAAAUA [Mai Tai2 ala mod Fisker]”, for which the “apparent KD of MS2 coat protein” value was found to be 23.5 nM with MS2 coat protein [3] and 18.8 nM in the series with MS2 coat protein [4].
